Experimental data as given in patent US20220017612A1 (TILOS THERAPEUTICS, published 2022).
Changes are numbered by the printed parent chain. Numbers in names are those of the source.

What was measured:
[1] = molecular target: T1, human LAP-TGFβ1 overexpressed on cells (human, UniProt P01137 30-390); experiment: flow cytometry; black bar HT1080-huB1, grey bar HT1080
T1 construct: HT1080 or P3U1 cells overexpressing wild-type human LAP-TGFβ1; also called HT1080-huB1; HT1080-hβ1

[2] = molecular target: T2, human GARP and human LAP-TGFβ1 co-expressed on P3U1 cells (human, UniProt Q14392 20-662); experiment: flow cytometry competition on P3U1 cells with human GARP and LAP-TGFβ1; competitor of biotin-28G11 (5 µg competitor, 0.31 µg biotin-28G11)
T2 construct: whole, on cells; also called P3U1 cells over-expressing human GARP and LAP-TGFβ1
Method: In the first experiment, the various humanized 28G11 candidates were tested for retention of binding to human LAP-TGFβ1 by competition with biotin-28G11 in a flow cytometry assay.
P3U1 cells over-expressing human GARP and LAP-TGFβ1 were placed in a round-bottom 96-well plate at density of 40,000 cells/well. The cells were washed with FACS buffer (25 mM HEPES, 2 mM EDTA, 2% fetal bovine serum in Hank's Balanced Salt Solution). 50 μL of 1:200 diluted TruStain Mouse FcX (BioLegend) was added to each well, followed by 50 μL of 100 ng/μL of humanized 28G11 construct (H0L0, H0L1, H0L2, H0L3, HILO, H1L1, H1L2, H1L3, H2L0, H2L1, H2L2, H2L3). The antibody was allowed to bind for 10 minutes. 50 μL of 6.2 ng/μL of biotinylated murine hybridoma 28G11_(hyb) was added to each well. The biotinylated antibody was allowed to bind for 10 minutes, and then the cells were washed twice with FACS buffer. The cells were labeled for 15 minutes with allophytocyanin-streptavidin (BioLegend), washed twice with FACS buffer, and analyzed by flow cytometry.

[3] = molecular target: T1, human LAP-TGFβ1 overexpressed on cells; experiment: flow cytometry; black bar HT1080-huB1, grey bar HT1080; remark: listed apart in the source
[4] = molecular target: T1, human LAP-TGFβ1 overexpressed on cells; experiment: flow cytometry; black bar HT1080-huB1, grey bar HT1080-null
[5] = molecular target: T1, human LAP-TGFβ1 overexpressed on cells; experiment: flow cytometry; black bar HT1080-huB1, grey bar HT1080; remark: listed apart in the source
Method: First, the ability of the humanized 20E6 candidates to bind to HT1080 cells overexpressing human TGFβ1 was tested by flow cytometry. HT1080 cells over-expressing human LAP-TGFβ1 were placed in a round-bottom 96-well plate at density of 40,000 cells/well. The cells were washed with FACS buffer (25 mM HEPES, 2 mM EDTA, 2% fetal bovine serum in Hank's Balanced Salt Solution). A volume (50 μL) of 1:200 diluted TruStain Human FcX (BioLegend) was added to each well, followed by 50 μL of 100 ng/μL of humanized 20E6 antibody construct. The antibody was allowed to bind for 20 minutes. The cells were washed twice with FACS buffer. The cells were labeled for 15 minutes with Alexa647-anti Human IgG (Jackson Immunoresearch), washed twice with FACS buffer, and analyzed by flow cytometry.

T1 sequence (P01137 30-390): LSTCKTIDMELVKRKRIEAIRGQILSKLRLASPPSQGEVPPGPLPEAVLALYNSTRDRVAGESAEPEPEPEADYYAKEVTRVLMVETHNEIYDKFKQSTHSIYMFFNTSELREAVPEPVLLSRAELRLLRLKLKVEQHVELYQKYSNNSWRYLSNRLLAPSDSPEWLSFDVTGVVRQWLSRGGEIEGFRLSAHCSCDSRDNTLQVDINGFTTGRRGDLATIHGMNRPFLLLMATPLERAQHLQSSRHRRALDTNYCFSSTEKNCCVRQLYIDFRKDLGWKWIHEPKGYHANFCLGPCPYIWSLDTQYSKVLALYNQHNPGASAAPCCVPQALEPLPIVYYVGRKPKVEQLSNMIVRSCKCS
T2 sequence (chain, as listed by the source, chain 1 of 2): as the sequence (P01137 30-390) above
T2 sequence (Q14392 20-662, chain 2 of 2): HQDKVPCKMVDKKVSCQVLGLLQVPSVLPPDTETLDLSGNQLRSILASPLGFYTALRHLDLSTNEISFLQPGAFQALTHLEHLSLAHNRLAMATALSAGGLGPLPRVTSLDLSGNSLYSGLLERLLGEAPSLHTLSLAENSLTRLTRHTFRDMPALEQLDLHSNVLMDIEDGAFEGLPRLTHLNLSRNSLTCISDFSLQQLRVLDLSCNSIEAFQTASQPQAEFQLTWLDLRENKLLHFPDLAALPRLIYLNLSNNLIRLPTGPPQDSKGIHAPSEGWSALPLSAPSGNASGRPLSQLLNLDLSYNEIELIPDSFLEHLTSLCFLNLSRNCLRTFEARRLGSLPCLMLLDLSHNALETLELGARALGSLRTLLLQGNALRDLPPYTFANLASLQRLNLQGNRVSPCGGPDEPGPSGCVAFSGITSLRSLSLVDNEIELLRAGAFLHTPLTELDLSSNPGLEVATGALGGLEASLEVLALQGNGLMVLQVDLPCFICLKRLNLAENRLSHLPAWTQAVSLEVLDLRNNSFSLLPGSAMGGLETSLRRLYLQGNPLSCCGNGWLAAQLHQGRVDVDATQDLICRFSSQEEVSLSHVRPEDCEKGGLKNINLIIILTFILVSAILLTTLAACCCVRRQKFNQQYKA

B1: 28G11_H2L3 (antibody, human IgG1, kappa)
heavy: not shown
light: DIQMTQSPSSLSASVGDRLTISCRASQDISNYLNWYQQKPGKTVKLLIYYTSRLHSGVPSRFSGSGSGTDYTLTISSLQPEDVATYFCQQGDTLPWTFGQGTKLEIKRTVAAPSVFIFPPSDEQLKSGTASVVCLLNNFYPREAKVQWKVDNALQSGNSQESVTEQDSKDSTYSLSSTLTLSKADYEKHKVYACEVTHQGLSSPVTKSFNRGEC
binding result [1]: binds
binding result [2]: binds

B2: 22F9_D102A (antibody, human IgG1, kappa, V domains shown)
VH: QVQLVQPGAEVVKPGASVKLSCKASGYTFTSYWMHWVKQRPGQGLEWIGMIHPNSGSTNYNEKFKSKATLTVDKSSSTAYMELSSLRSEDTAVYYCAYYDYAGFFDVWGQGTLVTVSS
VL: DIQLTQSPSSLSASVGDRVTITCRASKSVSTSGYSYMHWYQQKPGKAPKLLIYLASNLESGVPSRFSGSGSGTDFTLTISSLQPEDFATYYCQHSRELPYTFGGGTKVEIKR
notes: also called 22F9_H5L0 with VH D102A
binding result [3]: binds

B3: 22F9_H1.1 variant (antibody, human IgG1, kappa, V domains shown)
VH: B2 VH with N54Q, L70M, A79V
VL: B2 VL
binding result [4]: binds

B4: 22F9_H2.1 variant (antibody, human IgG1, kappa, V domains shown)
VH: B2 VH with N54Q, S76T
VL: B2 VL
binding result [4]: binds

B5: 22F9_H3.1 variant (antibody, human IgG1, kappa, V domains shown)
VH: B2 VH with K38R, R40A, N54Q, K67R, A68V
VL: B2 VL
binding result [4]: binds

B6: 22F9_H5.2L0 (antibody, human IgG1, kappa, V domains shown)
VH: B2 VH with N54Q
VL: B2 VL
notes: also called 22F9_H5L0 with the double N54Q/D102A mutation
binding result [3]: binds

B7: 22F9_N54Q (antibody, human IgG1, kappa, V domains shown)
VH: B2 VH with N54Q, A102D
VL: B2 VL
notes: also called 22F9_H5L0 with VH N54Q
binding result [3]: binds

B8: H0L0 (antibody, human IgG1, kappa, V domains shown)
VH: QVQLVQSGAEVKKPGASVKVSCKASGYTFTSYWMHWVRQAPGQGLEWMGRIDPNSGGIKYNEKFKSRVTMTRDTSISTAYMELSRLRSDDTAVYYCARWDYGGYFDVWGQGTLVTVSS
VL: DIQMTQSPSSLSASVGDRVTITCRASQDITNYLNWYQQKPGKAPKLLIYYTSRLHSGVPSRFSGSGSGTDFTLTISSLQPEDFATYYCQQGDTLPWTFGQGTKLEIKR
notes: also called 20E6_H0L0
binding result [5]: no binding (tested: single dose, 50 µL of 100 ng/µL)

B9: H1L0 (antibody, human IgG1, kappa, V domains shown)
VH: B8 VH with M48I, M70L, R72V
VL: B8 VL
notes: also called 20E6_H1L0
binding result [5]: no binding (tested: single dose, 50 µL of 100 ng/µL)

B10: H2L0 (antibody, human IgG1, kappa, V domains shown)
VH: B8 VH with M48I, M70L, R72V, T74K, I76S
VL: B8 VL
notes: also called 20E6_H2L0
binding result [5]: no binding (tested: single dose, 50 µL of 100 ng/µL)

B11: H3L0 (antibody, human IgG1, kappa, V domains shown)
VH: B8 VH with R38K, A40R, M48I, R67K, V68A, M70L, R72V, T74K, I76S
VL: B8 VL
notes: also called 20E6_H3L0
binding result [5]: no binding (tested: single dose, 50 µL of 100 ng/µL)

B12: 28G11_H2L2 (antibody, human IgG1, kappa)
heavy: not shown
light: B1 light with L19V, S22T
binding result [2]: binds

B13: 28G11_H2L1 (antibody, human IgG1, kappa, V domains shown)
VH: EVQLVESGGGLVQPGGSLRLSCAASGFTFTDYYMSWVRQAPGKGLEWLGFIRNKPNGYTTEYSASVKGRFTISRDNSQSSLYLQMNSLKTEDTAVYYCARYTGGGYFDYWGQGTLLTVSS
VL: B8 VL with T30S, A43V, F71Y, F83V, Y87F
binding result [2]: binds
